In patent US20160327558:

How the values were obtained:
FLAG-A20, P21580 = biological target: T1, FLAG-A20, P21580
T1 chain: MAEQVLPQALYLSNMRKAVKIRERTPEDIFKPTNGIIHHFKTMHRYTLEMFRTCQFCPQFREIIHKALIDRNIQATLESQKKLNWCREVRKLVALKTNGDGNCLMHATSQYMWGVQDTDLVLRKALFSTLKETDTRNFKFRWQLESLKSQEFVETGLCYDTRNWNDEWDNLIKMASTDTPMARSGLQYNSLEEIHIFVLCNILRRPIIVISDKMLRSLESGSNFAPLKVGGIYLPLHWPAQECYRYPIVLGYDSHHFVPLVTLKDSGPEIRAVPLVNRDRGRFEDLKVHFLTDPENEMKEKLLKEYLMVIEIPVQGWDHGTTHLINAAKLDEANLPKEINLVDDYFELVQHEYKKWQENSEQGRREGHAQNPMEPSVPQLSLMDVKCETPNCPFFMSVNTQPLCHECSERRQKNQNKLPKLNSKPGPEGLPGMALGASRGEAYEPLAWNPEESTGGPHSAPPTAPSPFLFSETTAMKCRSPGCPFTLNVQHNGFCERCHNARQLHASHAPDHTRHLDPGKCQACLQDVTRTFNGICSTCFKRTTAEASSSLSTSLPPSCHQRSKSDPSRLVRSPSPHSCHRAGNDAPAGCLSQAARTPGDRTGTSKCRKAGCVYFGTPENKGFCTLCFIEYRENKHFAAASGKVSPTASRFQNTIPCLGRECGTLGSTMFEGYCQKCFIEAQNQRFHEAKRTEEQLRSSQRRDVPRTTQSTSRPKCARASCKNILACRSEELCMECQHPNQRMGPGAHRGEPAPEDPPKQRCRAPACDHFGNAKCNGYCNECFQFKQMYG

probe 5 (FITC-LRSR-AOMK) = biological target: T2, probe 5 (FITC-LRSR-AOMK)
T2 chain: LRSR

z-VRPR-FMK = biological target: T3, z-VRPR-FMK (not fully specified)
T3 chain: VRPR

B1: FLAG-MALT1 wt (MALT1 Isoform B, overexpressed in Jurkat T cells) (protein)
chain: SLLGDPLQALPPSAAPTGPLLAPPAGATLNRLREPLLRRLSELLDQAPEGRGWRRLAELAGSRGRLRLSCLDLEQCSLKVLEPEGSPSLCLLKLMGEKGCTVTELSDFLQAMEHTEVLQLLSPPGIKITVNPESKAVLAGQFVKLCCRATGHPFVQYQWFKMNKEIPNGNTSELIFNAVHVKDAGFYVCRVNNNFTFEFSQWSQLDVCDIPESFQRSVDGVSESKLQICVEPTSQKLMPGSTLVLQCVAVGSPIPHYQWFKNELPLTHETKKLYMVPYVDLEHQGTYWCHVYNDRDSQDSKKVEIIIDELNNLGHPDNKEQTTDQPLAKDKVALLIGNMNYREHPKLKAPLVDVYELTNLLRQLDFKVVSLLDLTEYEMRNAVDEFLLLLDKGVYGLLYYAGHGYENFGNSFMVPVDAPNPYRSENCLCVQNILKLMQEKETGLNVFLLDMCRKRNDYDDTIPILDALKVTANIVFGYATCQGAEAFEIQHSGLANGIFMKFLKDRLLEDKKITVLLDEVAEDMGKCHLTKGKQALEIRSSLSEKRALTDPIQGTEYSAESLVRNLQWAKAHELPESMCLKFDCGVQIQLGFAAEFSNVMIIYTSIVYKPPEIIMCDAYVTDFPLDLDIDPKDANKGTPEETGSYLVSKDLPKHCLYTRLSSLQKLKEHLVFTVCLSYQYSGLEDTVEDKQEVNVGKPLIAKLDMHRGLGRKTCFQTCLMSNGPYQSSAATSGGAGHYHSLQDPFHGVYHSHPGNPSNVTPADSCHCSRTPDAFISSFAHHASCHFSRSNVPVETTDEIPFSFSDRLRISEK
**Q.** How did the “MALT1 cleavage of A20, analyzed by western blot” value (FLAG-A20, P21580) turn out when B1 was run?
**A.** only wt MALT1 is capable of cleaving its substrates

B2: FLAG-MALT1 active site mutant C464A (C453A in Isoform B) (protein)
chain: SLLGDPLQALPPSAAPTGPLLAPPAGATLNRLREPLLRRLSELLDQAPEGRGWRRLAELAGSRGRLRLSCLDLEQCSLKVLEPEGSPSLCLLKLMGEKGCTVTELSDFLQAMEHTEVLQLLSPPGIKITVNPESKAVLAGQFVKLCCRATGHPFVQYQWFKMNKEIPNGNTSELIFNAVHVKDAGFYVCRVNNNFTFEFSQWSQLDVCDIPESFQRSVDGVSESKLQICVEPTSQKLMPGSTLVLQCVAVGSPIPHYQWFKNELPLTHETKKLYMVPYVDLEHQGTYWCHVYNDRDSQDSKKVEIIIDELNNLGHPDNKEQTTDQPLAKDKVALLIGNMNYREHPKLKAPLVDVYELTNLLRQLDFKVVSLLDLTEYEMRNAVDEFLLLLDKGVYGLLYYAGHGYENFGNSFMVPVDAPNPYRSENCLCVQNILKLMQEKETGLNVFLLDMARKRNDYDDTIPILDALKVTANIVFGYATCQGAEAFEIQHSGLANGIFMKFLKDRLLEDKKITVLLDEVAEDMGKCHLTKGKQALEIRSSLSEKRALTDPIQGTEYSAESLVRNLQWAKAHELPESMCLKFDCGVQIQLGFAAEFSNVMIIYTSIVYKPPEIIMCDAYVTDFPLDLDIDPKDANKGTPEETGSYLVSKDLPKHCLYTRLSSLQKLKEHLVFTVCLSYQYSGLEDTVEDKQEVNVGKPLIAKLDMHRGLGRKTCFQTCLMSNGPYQSSAATSGGAGHYHSLQDPFHGVYHSHPGNPSNVTPADSCHCSRTPDAFISSFAHHASCHFSRSNVPVETTDEIPFSFSDRLRISEK
**Q.** How did the “MALT1 cleavage of A20, analyzed by western blot” value (FLAG-A20, P21580) turn out when B2 was run?
**A.** only wt MALT1 is capable of cleaving its substrates (the mutant does not cleave)

B3: recombinant Caspase-8 (protein)
chain: SESQTLDKVYQMKSKPRGYCLIINNHNFAKAREKVPKLHSIRDRNGTHLDAGALTTTFEELHFEIKPHDDCTVEQIYEILKIYQLMDHSNMDCFICCILSHGDKGIIYGTDGQEAPIYELTSQFTGLKCPSLAGKPKVFFIQACQGDNYQKGIPVETDSEEQPYLEMDLSSPQTRYIPDEADFLLGMATVNNCVSYRNPAEGTWYIQSLCQSLRERCPRGDDILTILTEVNYEVSNKDDKKNMGKQMPQPTFTLRKKLVFPSD
**Q.** B3 was tested. Which “in vitro protease activity measurements (DEVD-AMC cleavage)” value (probe 5 (FITC-LRSR-AOMK)) did it give?
**A.** As expected, Caspase 8 activity was not affected by the diagnostic inhibitors of MALT1 of the present invention

B4: MALT1 (in vitro cleavage assay of FIG. 3C) (protein)
chain: MSLLGDPLQALPPSAAPTGPLLAPPAGATLNRLREPLLRRLSELLDQAPEGRGWRRLAELAGSRGRLRLSCLDLEQCSLKVLEPEGSPSLCLLKLMGEKGCTVTELSDFLQAMEHTEVLQLLSPPGIKITVNPESKAVLAGQFVKLCCRATGHPFVQYQWFKMNKEIPNGNTSELIFNAVHVKDAGFYVCRVNNNFTFEFSQWSQLDVCDIPESFQRSVDGVSESKLQICVEPTSQKLMPGSTLVLQCVAVGSPIPHYQWFKNELPLTHETKKLYMVPYVDLEHQGTYWCHVYNDRDSQDSKKVEIIIDELNNLGHPDNKEQTTDQPLAKDKVALLIGNMNYREHPKLKAPLVDVYELTNLLRQLDFKVVSLLDLTEYEMRNAVDEFLLLLDKGVYGLLYYAGHGYENFGNSFMVPVDAPNPYRSENCLCVQNILKLMQEKETGLNVFLLDMCRKRNDYDDTIPILDALKVTANIVFGYATCQGAEAFEIQHSGLANGIFMKFLKDRLLEDKKITVLLDEVAEDMGKCHLTKGKQALEIRSSLSEKRALTDPIQGTEYSAESLVRNLQWAKAHELPESMCLKFDCGVQIQLGFAAEFSNVMIIYTSIVYKPPEIIMCDAYVTDFPLDLDIDPKDANKGTPEETGSYLVSKDLPKHCLYTRLSSLQKLKEHLVFTVCLSYQYSGLEDTVEDKQEVNVGKPLIAKLDMHRGLGRKTCFQTCLMSNGPYQSSAATSGGAGHYHSLQDPFHGVYHSHPGNPSNVTPADSCHCSRTPDAFISSFAHHASCHFSRSNVPVETTDEIPFSFSDRLRISEK
**Q.** Which results are given for B4?
**A.** in vitro protease activity measurements (cleavage of fluorescent substrates) (z-VRPR-FMK): probe 5 and also z-VRPR-FMK did not only inhibit MALT1; in vitro protease activity measurements (cleavage of fluorescent substrates) (probe 5 (FITC-LRSR-AOMK)): probe 5 and also z-VRPR-FMK did not only inhibit MALT1
